Key:
HP1β (Homo sapiens) = HP1β (Homo sapiens) (UniProt P83916); settings: cited from earlier work
[1] = biological target: H3K9me3 oligonucleosomes (12-mer oligonucleosomal arrays) (Xenopus laevis); assay: co-sedimentation; chromatin coprecipitation with oligonucleosomes reconstituted to different saturation (0.8:1.0, 1.0:1.0, 1.0:1.2 octamers to positioning sequences); saturating protein concentrations; Coomassie bands quantified in relation to input
[2] = biological target: H3KC9me3 mononucleosome (Xenopus laevis); assay: ITC; 1.8 mM hHP1β injected into 60 μM H3 peptides, nucleosomes or oligonucleosomal arrays; 25°C; 10 mM triethanolamine pH 7.5, 20 mM NaCl, 0.1 mM EDTA; apparent; one set of identical sites
[3] = biological target: free H3K9me3 tail peptide; assay: as above
[4] = biological target: H3KC9me3 mononucleosome (Xenopus laevis); assay: ITC; 1.8 mM hHP1β injected into 60 μM H3 peptides, nucleosomes or oligonucleosomal arrays; 25°C; 10 mM triethanolamine pH 7.5, 150 mM NaCl, 0.1 mM EDTA; apparent; one set of identical sites
[5] = biological target: H3KC9me3 oligonucleosomes (12-mer oligonucleosomal arrays) (Xenopus laevis); assay: as above
[6] = biological target: free H3K9me3 tail peptide; assay: as above
[7] = biological target: H3K9me3 mononucleosome (Xenopus laevis); assay: SPR; biotinylated ligands on streptavidin (SA) chips, hHP1β proteins injected; 298 K; 10 mM triethanolamine pH 7.5, 150 mM NaCl, 0.1 mM EDTA, 1 mM DTT, 0.005% Tween-20; steady-state analysis; apparent
[8] = biological target: H3K9me3 oligonucleosomes (12-mer oligonucleosomal arrays) (Xenopus laevis)
H3KC9me3 tail peptide [9] = assay: ITC; 1.8 mM hHP1β injected into 60 μM H3 peptides, nucleosomes or oligonucleosomal arrays; 25°C; 10 mM triethanolamine pH 7.5, 20 mM NaCl, 0.1 mM EDTA; apparent; one set of identical sites
H3KC9me3 tail peptide [10] = assay: ITC; 1.8 mM hHP1β injected into 60 μM H3 peptides, nucleosomes or oligonucleosomal arrays; 25°C; 10 mM triethanolamine pH 7.5, 150 mM NaCl, 0.1 mM EDTA; apparent; one set of identical sites

Chain of human HP1β wild type (hHP1β WT) (P83916 whole entry): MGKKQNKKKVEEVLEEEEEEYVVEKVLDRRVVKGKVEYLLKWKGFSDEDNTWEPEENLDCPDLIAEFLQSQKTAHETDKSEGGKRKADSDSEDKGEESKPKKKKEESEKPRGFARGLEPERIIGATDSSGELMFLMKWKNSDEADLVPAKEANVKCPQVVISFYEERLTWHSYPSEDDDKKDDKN
Chain of HP1β (P83916 whole entry): as above
Chain of Swi6 (P40381 whole entry): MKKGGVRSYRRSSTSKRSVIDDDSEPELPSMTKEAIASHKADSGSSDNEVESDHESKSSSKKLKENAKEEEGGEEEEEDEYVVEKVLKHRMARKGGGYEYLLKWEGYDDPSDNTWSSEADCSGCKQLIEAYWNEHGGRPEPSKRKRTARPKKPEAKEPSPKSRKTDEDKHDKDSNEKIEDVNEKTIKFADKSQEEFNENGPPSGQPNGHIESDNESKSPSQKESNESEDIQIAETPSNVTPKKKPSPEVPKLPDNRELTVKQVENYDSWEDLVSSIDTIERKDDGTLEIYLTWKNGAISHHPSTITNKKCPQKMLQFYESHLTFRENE

Substance | stoichiometry N (molecules per nucleosome) [1] | Kd [2] [µM] | stoichiometry N [2] | Kd [3] [µM] | stoichiometry N [3] | Kd [4] [µM] | stoichiometry N [4] | Kd [5] [µM] | stoichiometry N [5] | stoichiometry N [6] | Kd [7] [µM] | also measured
HP1β (from UniProt P83916) | – | – | – | – | – | – | – | – | – | – | – | Kd (HP1β (Homo sapiens)): < 0.001 µM
Swi6 (from UniProt P40381 1-328) (natural protein) | 4 | – | – | – | – | – | – | – | – | – | – | –
hHP1β I161A (from UniProt P83916 1-185) (natural protein) | – | 223 | 1.1 | 1.1 | 1 | 58 | 1.2 | 132 | 1.1 | 0.9 | 5.2 | Kd [6]: 3.4 µM
hHP1β chromo domain (CD) (domain or fragment) | – | – | – | – | – | – | – | – | – | 1.1 | – | –
human HP1β wild type (hHP1β WT) (from UniProt P83916 1-185) (natural protein) | 2 | 59 | 2.1 | 1.4 | 0.9 | 22 | 1.4 | 11 | 1.9 | 1 | 1 | half-maximal effect in the chromatin precipitation (sedimentation) assay, 150 mM NaCl, 4°C [8]: 0.4 µM; half-maximal effect on the hydrodynamic radius of oligonucleosomes by FCS, 150 mM NaCl, 23°C [8]: 3.5 µM; Kd (H3KC9me3 tail peptide [9]): 11 µM; stoichiometry N (H3KC9me3 tail peptide [9]): 1; Kd (H3KC9me3 tail peptide [10]): 21 µM; stoichiometry N (H3KC9me3 tail peptide [10]): 1

— paper PMC4838890, “Dynamic and flexible H3K9me3 bridging via HP1β dimerization establishes a plastic state of condensed chromatin” (Nature Communications, 2016)
